Experimental data: patent US20260028422A1 (CONCEPT TO MEDICINE BIOTECH, published 2026)
Substitutions are numbered along the chain they refer to.

T1: human MerTK-his protein (human, UniProt Q12866 21-505)
T1 construct: extracellular domain; also called hMerTK-His; human MerTK protein
T1 sequence (looked up): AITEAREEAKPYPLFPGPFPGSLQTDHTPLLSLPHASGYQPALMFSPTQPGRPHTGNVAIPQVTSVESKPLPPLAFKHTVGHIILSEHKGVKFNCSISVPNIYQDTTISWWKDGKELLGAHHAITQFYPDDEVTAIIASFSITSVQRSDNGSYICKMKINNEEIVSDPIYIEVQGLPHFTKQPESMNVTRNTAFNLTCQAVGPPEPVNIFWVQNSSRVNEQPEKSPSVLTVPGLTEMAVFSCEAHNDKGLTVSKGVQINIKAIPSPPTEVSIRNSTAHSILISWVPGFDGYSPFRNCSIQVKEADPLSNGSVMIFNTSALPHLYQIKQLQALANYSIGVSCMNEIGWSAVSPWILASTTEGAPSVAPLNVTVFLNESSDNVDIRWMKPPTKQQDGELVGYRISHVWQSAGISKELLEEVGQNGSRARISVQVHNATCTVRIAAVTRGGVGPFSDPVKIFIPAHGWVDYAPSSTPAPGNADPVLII

T2: cyno MerTK-his protein (cynomolgus, UniProt A0A2K5V1H9 27-505)
T2 construct: also called cyno MerTK protein; Cynomolgus
T2 sequence: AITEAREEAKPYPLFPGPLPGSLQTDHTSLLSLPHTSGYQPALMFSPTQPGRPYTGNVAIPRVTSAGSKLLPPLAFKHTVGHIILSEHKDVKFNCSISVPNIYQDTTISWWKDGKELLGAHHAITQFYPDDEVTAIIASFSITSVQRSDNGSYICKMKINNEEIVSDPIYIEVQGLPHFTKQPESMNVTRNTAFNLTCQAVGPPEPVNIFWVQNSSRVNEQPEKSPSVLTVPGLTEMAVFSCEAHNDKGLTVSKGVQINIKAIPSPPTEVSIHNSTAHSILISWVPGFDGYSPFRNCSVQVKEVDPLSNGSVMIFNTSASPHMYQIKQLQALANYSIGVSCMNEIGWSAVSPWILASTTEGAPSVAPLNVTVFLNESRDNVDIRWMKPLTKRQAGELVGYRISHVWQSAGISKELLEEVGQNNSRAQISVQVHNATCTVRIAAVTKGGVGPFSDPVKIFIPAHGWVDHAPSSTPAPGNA

T3: human MerTK expressed on cells (human, UniProt Q12866 21-999)
T3 construct: whole, on cells; also called CHO-K1-hMerTK; CHO-K1-MerTK
T3 sequence (looked up): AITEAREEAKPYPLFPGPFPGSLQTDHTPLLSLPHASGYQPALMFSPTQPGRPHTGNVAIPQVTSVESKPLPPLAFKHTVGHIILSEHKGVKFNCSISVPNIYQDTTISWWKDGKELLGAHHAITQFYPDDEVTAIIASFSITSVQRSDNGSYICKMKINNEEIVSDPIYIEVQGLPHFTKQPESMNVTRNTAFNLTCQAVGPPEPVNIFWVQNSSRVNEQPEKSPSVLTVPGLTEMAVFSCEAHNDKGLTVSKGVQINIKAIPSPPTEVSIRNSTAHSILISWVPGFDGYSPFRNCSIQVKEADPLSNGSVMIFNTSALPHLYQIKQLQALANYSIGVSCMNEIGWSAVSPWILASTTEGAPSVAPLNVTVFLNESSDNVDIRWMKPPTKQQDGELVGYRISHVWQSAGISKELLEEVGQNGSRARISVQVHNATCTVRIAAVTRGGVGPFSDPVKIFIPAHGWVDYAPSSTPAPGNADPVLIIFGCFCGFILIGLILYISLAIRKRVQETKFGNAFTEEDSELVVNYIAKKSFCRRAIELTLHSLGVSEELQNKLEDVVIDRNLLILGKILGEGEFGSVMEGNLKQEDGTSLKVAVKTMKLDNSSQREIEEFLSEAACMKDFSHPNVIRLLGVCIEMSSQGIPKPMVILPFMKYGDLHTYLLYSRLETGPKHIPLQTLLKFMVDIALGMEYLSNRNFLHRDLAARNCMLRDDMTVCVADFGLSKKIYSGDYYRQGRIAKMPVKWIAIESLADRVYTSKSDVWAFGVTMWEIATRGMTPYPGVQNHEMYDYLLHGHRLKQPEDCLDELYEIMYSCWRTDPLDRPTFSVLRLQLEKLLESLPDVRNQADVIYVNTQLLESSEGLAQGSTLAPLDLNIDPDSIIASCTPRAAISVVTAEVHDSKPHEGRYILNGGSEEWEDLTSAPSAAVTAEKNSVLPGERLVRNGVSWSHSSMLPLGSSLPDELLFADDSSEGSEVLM

B1: 276C2D1 chimeric monoclonal antibody (antibody, V domains shown)
VH: QVQLQQSGPELVKPGASVKLSCKASGYTFTSYDINWVKQRPGLGLEWIGWIYPRDGYTKYNEKFKGKATLAVDTSSSTAYMELHSLTSEDSAVYFCARGYYSNLYYFDYWGQGTTLTVSS
VL: EVVLTQSPPTMAASPGEKITITCSASSSISSNYLHWYQQKPGFSPKLLIYRTSNLASGVPARFSGSGSGTSYSLTIGTMEAEDVATYYCQQGRSIPLTFGAGTKLELK
B2: 280C6A3 chimeric monoclonal antibody (antibody, V domains shown)
VH: B1 VH with T28S, S31T, L43Q, Y57S, A71T, V72L, S77N, E82G, S102D
VL: B1 VL with V2I, P9T, I29V, S94I, I95V
B3: 300A5A3 chimeric monoclonal antibody (antibody, V domains shown)
VH: B1 VH with S31T, Y80S, S102D, Y109N, Q112P
VL: B1 VL with V2N, P9T, M11V, S28I, V84A, I95V
B4: 265F11B5 chimeric monoclonal antibody (antibody, V domains shown)
VH: B1 VH with K19R, S31T, K67R, A97T, S102D
VL: B1 VL with V2I, P9T, M11V, S28I, L34F, K40R, I95V
B5: 293C2B7 chimeric monoclonal antibody (antibody, V domains shown)
VH: B1 VH with L43Q, N61K, A71T, Y100F
VL: B1 VL with V2I, P9T, A13T, A61D
B6: 216G3D6 chimeric monoclonal antibody (antibody, V domains shown)
VH: QVTLKESGPGILQPSQTLSLTCSFSGFSLSTSGMGVGWIRQPSGKGLEWLAHIWWDDDKHCNPALKSRLTISKDTSSNQVFLKIASLDTADTATYYCTQMTMTREFAYWGQGTLVTVSA
VL: DIQMTQTISSLSASLGDRVTISCSAGQGISNYLNWYQQKPDGTVKLLIYYTSRLHSGVPSRFSGSGSGTDFSLTISNLEPEDIATYFCQQYSKFPYTFGGGTKLEIK
B7: 247E5A8 chimeric monoclonal antibody (antibody, V domains shown)
VH: DVQLQESGPGLVKPSQSLSLTCSVTGYSITGGYYWTWIRQFPGNKLEWMGYISYDGDNNYNPSLKNRISITRDTSKNQFFLNLNSVTTEDTATYYCAREGGRLRTMDYWGQGTSVTVSS
VL: QIVLTQSPAIMSASPGEKVTITCRASSSVNYMHWFQQKPGTSPKLWIYTTSNLASGVPARFSGSGSGTSYSLTISRMEAEDAATYYCQQRSSYPFTFGSGTKLEIK
B8: 252C12B10 chimeric monoclonal antibody (antibody, V domains shown)
VH: QVQLQQPGTELVKPGASVKLSCKTSGYTFTSYWMHWMKQRPGQGLEWLGHINPSTGGSNYNEKFKSKATLTVDKSSNTAYMQLSSLTSEDSAVYYCARPRGFYGYSYWYFDVWGSGTTVTVSS
VL: DIQMTQTTSSLSASLGDRVTISCSASQDINNYLNWYQHKPDGTIKVLIYFTSSLHSGVPSRFSGSGSGTEYSLTISNLEPEDIATYYCQQYSKLPPTFGSGTKLEIK
B9: h13B4.v16 benchmark antibody (antibody, V domains shown)
VH: EVQLVESGEGLVQPGGSLRLSCAASGFSLSSYAMGWVRQAPGKGLEYVGIINSYGNTYYANWAKGRFTISRDNSKNTVYLQMGSLRAEDMAVYYCARDPGVSSNLWGRGTLVTVSS
VL: DIQMTQSPSTLSASVGDRVTITCQASQNIYSGLAWYQQKPGKAPKLLIYGASKLASGVPSRFSGSGSGTEFTLTISSLQPDDFATYYCQATYYSSNSVAFGGGTKVEIK
B10: 10F7D9 chimeric monoclonal antibody (antibody, V domains shown)
VH: QIQLVQSGPELKKPGETVKISCKASGYTFTNYGMNWVKQAPGKGLKWMGWINTYTGEPTYADDFKGRFAFSLETSASTAYLQINNLKNEDLATYFCATYGHYAWFAYWGQGTLVTVSA
VL: QIVLSQSPAILSASPGEKVTMTCRASSSVSYMHWYQQKSGSSPKPWIYATSNLASGVPARFSGSGSGTSYSLTISRVEAEDAATYFCQQWGTKPLTFGAGTKLELK
B11: 85H8D5 chimeric monoclonal antibody (antibody, V domains shown)
VH: QIQLVQSGPELKKPGETVKISCMASGYTFTTHGVTWVKQAPGQGLQRMGWINTYSGVPTYADDFKGRFVFSLETSANTAHLQINNLKNEDTATYFCARTNNYRYFDVWGTGTTVTVSS
VL: B10 VL with A13S, S39P, S71F, F86Y, G91N, K93D, L95P, A99G, L105I
B12: 254B4D9 chimeric monoclonal antibody (antibody, V domains shown)
VH: QIQLVQSGPELKKPGETVKISCKASGYTFTAYGMSWVKQAPGKGLQWMGWINTYSGVPTYTDDFKGRFAFSLEASASTAFLQINNLKNEDTSTYFCARRAAVVAKYWYFDVWGTGTTVTVSS
VL: DIQMTQSPSSLFASLGGKVIITCKSSQDINKRISWYQHKPGKGPRLLIHSTSSLQPGIPLRFSGSGSGRDYSFSISNLEPEDIATYFCLQYDNLLTFGAGTKLELK
B13: 252H9D5 chimeric monoclonal antibody (antibody, V domains shown)
VH: QVTLRESGPGILQPSQTLSLTCSFSGFSLNTFGMGVGWIRQSSGKGLKWLAHIWWDDDKFYNPALKSRLTISKDTSKNQVFLKIANVDTTDTATYYCARIEGGLPYYYDYWGQGTPLIVSS
VL: DIVMTQSQKIMSTSVGDRISVTCKASQIVGTNVVWYQQKPGQSPKALIYSTSYRYSGVPDRFTGSRSGTDFTLTISNVQSEDLANYFCQQYNSYPFTFGSGTKLEIK

What was measured:
human MerTK-his protein = molecular target: T1, human MerTK-his protein; test: ELISA, coated human MerTK-his
Procedure: (§1) To evaluate the binding activity, the chimeric mAbs were subjected to ELISA test. Briefly, 96-well plates were coated with human or cyno MerTK-his protein at 2 μg/mL in PBS, 100 μL/well at 4° C. overnight, then blocked with 150 μL/well of 1% BSA. Five-fold dilutions of MerTK antibodies starting from 20 nM were added to each well and incubated for 1 hour at room temperature. The plates were washed with PBS/Tween-20 and then incubated with goat anti-human IgG Fe antibody conjugated with Horse Radish Peroxidase (HRP) for 30 minutes (mins) at room temperature. After washing, the plates were developed with TMB substrate and subsequent stop solution was added to complete the reaction. The signal from each well was read by spectrophotometer at OD 450 nm.

cyno MerTK-his protein = molecular target: T2, cyno MerTK-his protein; test: ELISA, coated cyno MerTK-his
Procedure: as §1

[1] = molecular target: T3, human MerTK expressed on cells; test: FACS on CHO-K1 cells overexpressing human MerTK, MFI (PE)
Procedure: To evaluate the binding property to the antigen expressed on the cells, the chimeric monoclonal antibodies were analyzed for their binding to human MerTK overexpressed on CHO-K1 cells by FACS. Briefly, human MerTK overexpressing CHO-K1 (CHO-K1-MerTK) cells were firstly incubated with 5-fold serially diluted mAbs starting at 20 nM at 4° C. for 1 hour. After washing with FACS buffer, the PE conjugated anti-human IgG-Fc secondary antibody was added to each well and incubated at 4° C., for 30 mins. The mean fluorescence intensity (MFI) of PE were evaluated by QuantAnalyzer 16.

Binder	EC50 (human MerTK-his protein)	EC50 (cyno MerTK-his protein)	EC50 [1]	Top [1]
B1	0.019 nM	0.02 nM		
B2	0.012 nM	0.014 nM		
B3	0.024 nM	0.026 nM		
B4	0.0097 nM	0.017 nM		
B5	0.017 nM	0.02 nM		
B6	0.046 nM	0.047 nM	0.17 nM	11000 MFI (PE)
B7	0.032 nM	0.037 nM	0.12 nM	10800 MFI (PE)
B8	0.039 nM	0.04 nM	0.063 nM	6040 MFI (PE)
B9			0.17 nM	5920 MFI (PE)
B10	0.027 nM	0.024 nM	0.04 nM	10800 MFI (PE)
B11	0.025 nM	0.024 nM	0.054 nM	10500 MFI (PE)
B12	0.047 nM	0.056 nM		
B13	0.052 nM	0.15 nM	0.12 nM	7290 MFI (PE)
